Patent US20190002564A1 (Hoffmann-La Roche, published 2019)

Experiments:
[1] = target: T1, human CEA (Carcinoembryonic antigen, CEACAM5) on tumor cells (human, UniProt P06731 35-685, The C-terminal Ala685 carries the GPI anchor. The protein is heavily N-glycosylated.); assay: cell-based or functional assay
T1 sequence: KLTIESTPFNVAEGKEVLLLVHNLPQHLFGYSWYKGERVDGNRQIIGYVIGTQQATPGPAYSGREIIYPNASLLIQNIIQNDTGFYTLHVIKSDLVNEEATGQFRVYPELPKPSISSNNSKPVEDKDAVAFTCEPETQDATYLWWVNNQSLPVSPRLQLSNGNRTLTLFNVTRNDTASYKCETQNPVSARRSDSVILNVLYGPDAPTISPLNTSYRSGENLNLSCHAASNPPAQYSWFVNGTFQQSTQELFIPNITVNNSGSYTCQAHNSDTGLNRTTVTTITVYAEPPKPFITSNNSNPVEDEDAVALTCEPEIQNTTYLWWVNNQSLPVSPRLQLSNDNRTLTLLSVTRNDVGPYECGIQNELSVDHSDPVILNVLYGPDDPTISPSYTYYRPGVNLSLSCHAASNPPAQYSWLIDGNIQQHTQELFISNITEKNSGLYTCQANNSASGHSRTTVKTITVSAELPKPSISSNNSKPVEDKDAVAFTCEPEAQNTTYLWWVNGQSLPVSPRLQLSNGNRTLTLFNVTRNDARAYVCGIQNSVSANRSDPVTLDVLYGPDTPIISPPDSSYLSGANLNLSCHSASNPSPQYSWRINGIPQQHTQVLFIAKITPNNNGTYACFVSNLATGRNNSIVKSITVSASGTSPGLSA

[2] = target: T1, human CEA (Carcinoembryonic antigen, …); assay: cell-based or functional assay; remark: listed apart in the source
[3] = target: T2, human CD3 on Jurkat cells (Homo sapiens, UniProt P07766); assay: flow cytometry on Jurkat cells (human CD3), FITC-conjugated anti-human IgG F(ab')2 secondary antibody, median fluorescence intensity
T2 construct: native, on the surface of the Jurkat human T cell line; also called CD3+ cells (Jurkat)
Procedure: (§1) An untargeted TCB (SEQ ID NOs: 59, 60, 61 and 62; see example 24) was used as control. Briefly, cells were harvested, counted, checked for viability and resuspended at 2×10⁶ cells/ml in FACS buffer (100 μl PBS 0.1% BSA).

[4] = target: T2, human CD3 on Jurkat cells; assay: flow cytometry on Jurkat cells (CD3+), PE-conjugated anti-human IgG Fcγ secondary antibody, median fluorescence intensity
Procedure: (§2) Briefly, cells were harvested, counted, checked for viability and resuspended at 2×10⁶ cells/ml in FACS buffer (100 μl PBS 0.1% BSA).

[5] = target: T3, human MCSP (Melanoma-associated Chondroitin Sulfate Proteoglycan) on tumor cells (human, UniProt Q6UVK1 30-2322); assay: flow cytometry on A375 cells (MCSP+), PE-conjugated anti-human IgG Fcγ secondary antibody, median fluorescence intensity
T3 construct: whole, on cells; Cell surface antigen on human tumor cell lines A375 (high), MV-3 (medium), HCT-116 (low); also called CSPG4
Procedure: as §2

[6] = target: T1, human CEA (Carcinoembryonic antigen, …); assay: flow cytometry on A549-huCEA cells, FITC-conjugated anti-human IgG F(ab')2 secondary antibody, median fluorescence intensity
Procedure: as §1

cynomolgus MCSP D3 = target: T4, cynomolgus MCSP D3 (cynomolgus, UniProt Q6UVK1 1582-2224 (human entry), limits assumed); assay: SPR ProteOn XPR36; parental M4-3/ML2 IgG KD against variant IgG KD
T4 construct: Recombinant, captured through anti-Penta His in the avidity set-up; also called Cyno MCSP; cynomolgus homologue
T4 chain: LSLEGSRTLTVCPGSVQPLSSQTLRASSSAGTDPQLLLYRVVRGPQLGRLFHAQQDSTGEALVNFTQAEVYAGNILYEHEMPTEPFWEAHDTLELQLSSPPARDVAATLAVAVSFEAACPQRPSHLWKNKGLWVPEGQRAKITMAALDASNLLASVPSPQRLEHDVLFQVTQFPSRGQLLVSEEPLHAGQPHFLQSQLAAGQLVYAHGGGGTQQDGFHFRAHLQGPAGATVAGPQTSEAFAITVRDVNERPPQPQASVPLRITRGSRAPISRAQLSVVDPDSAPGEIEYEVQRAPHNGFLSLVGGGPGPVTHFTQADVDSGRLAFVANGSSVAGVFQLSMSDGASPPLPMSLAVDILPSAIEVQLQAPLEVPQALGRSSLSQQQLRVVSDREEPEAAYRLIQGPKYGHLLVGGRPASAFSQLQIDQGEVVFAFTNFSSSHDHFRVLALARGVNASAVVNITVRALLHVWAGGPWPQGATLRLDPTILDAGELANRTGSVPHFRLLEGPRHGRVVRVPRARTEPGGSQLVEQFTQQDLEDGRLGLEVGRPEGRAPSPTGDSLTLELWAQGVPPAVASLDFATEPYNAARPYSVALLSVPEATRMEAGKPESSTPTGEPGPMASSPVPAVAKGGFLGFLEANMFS

[7] = target: T5, human MCSP(D3 domain)-avi-his (human, UniProt Q6UVK1 1582-2224); assay: as above
T5 construct: Recombinant D3 domain of MCSP (CSPG4) with avi and his tags; also called hu-MCSP(D3 domain)-avi-his; human MCSP antigen
T5 sequence: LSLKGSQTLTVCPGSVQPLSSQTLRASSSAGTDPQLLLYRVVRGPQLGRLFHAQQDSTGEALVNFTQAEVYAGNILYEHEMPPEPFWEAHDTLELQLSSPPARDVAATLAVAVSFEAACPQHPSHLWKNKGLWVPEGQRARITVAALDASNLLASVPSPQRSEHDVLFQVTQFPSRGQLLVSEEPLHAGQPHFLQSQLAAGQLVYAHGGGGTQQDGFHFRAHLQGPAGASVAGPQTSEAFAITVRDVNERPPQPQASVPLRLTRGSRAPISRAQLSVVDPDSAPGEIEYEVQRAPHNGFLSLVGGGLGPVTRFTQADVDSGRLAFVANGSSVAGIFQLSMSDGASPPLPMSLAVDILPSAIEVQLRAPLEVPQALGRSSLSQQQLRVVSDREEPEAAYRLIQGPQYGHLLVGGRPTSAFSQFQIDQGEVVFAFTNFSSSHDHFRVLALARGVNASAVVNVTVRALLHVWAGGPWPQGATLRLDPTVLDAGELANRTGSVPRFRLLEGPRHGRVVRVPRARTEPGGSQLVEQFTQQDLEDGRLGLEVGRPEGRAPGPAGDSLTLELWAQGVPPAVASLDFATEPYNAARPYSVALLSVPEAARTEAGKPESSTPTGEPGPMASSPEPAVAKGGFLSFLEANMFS

T2 sequence (P07766 23-207): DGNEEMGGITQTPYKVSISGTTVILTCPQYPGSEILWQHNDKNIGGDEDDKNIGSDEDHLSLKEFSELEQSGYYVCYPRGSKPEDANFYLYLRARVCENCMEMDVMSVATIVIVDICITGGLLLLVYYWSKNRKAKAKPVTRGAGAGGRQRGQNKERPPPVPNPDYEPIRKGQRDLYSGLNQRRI
T3 sequence (Q6UVK1 30-2322): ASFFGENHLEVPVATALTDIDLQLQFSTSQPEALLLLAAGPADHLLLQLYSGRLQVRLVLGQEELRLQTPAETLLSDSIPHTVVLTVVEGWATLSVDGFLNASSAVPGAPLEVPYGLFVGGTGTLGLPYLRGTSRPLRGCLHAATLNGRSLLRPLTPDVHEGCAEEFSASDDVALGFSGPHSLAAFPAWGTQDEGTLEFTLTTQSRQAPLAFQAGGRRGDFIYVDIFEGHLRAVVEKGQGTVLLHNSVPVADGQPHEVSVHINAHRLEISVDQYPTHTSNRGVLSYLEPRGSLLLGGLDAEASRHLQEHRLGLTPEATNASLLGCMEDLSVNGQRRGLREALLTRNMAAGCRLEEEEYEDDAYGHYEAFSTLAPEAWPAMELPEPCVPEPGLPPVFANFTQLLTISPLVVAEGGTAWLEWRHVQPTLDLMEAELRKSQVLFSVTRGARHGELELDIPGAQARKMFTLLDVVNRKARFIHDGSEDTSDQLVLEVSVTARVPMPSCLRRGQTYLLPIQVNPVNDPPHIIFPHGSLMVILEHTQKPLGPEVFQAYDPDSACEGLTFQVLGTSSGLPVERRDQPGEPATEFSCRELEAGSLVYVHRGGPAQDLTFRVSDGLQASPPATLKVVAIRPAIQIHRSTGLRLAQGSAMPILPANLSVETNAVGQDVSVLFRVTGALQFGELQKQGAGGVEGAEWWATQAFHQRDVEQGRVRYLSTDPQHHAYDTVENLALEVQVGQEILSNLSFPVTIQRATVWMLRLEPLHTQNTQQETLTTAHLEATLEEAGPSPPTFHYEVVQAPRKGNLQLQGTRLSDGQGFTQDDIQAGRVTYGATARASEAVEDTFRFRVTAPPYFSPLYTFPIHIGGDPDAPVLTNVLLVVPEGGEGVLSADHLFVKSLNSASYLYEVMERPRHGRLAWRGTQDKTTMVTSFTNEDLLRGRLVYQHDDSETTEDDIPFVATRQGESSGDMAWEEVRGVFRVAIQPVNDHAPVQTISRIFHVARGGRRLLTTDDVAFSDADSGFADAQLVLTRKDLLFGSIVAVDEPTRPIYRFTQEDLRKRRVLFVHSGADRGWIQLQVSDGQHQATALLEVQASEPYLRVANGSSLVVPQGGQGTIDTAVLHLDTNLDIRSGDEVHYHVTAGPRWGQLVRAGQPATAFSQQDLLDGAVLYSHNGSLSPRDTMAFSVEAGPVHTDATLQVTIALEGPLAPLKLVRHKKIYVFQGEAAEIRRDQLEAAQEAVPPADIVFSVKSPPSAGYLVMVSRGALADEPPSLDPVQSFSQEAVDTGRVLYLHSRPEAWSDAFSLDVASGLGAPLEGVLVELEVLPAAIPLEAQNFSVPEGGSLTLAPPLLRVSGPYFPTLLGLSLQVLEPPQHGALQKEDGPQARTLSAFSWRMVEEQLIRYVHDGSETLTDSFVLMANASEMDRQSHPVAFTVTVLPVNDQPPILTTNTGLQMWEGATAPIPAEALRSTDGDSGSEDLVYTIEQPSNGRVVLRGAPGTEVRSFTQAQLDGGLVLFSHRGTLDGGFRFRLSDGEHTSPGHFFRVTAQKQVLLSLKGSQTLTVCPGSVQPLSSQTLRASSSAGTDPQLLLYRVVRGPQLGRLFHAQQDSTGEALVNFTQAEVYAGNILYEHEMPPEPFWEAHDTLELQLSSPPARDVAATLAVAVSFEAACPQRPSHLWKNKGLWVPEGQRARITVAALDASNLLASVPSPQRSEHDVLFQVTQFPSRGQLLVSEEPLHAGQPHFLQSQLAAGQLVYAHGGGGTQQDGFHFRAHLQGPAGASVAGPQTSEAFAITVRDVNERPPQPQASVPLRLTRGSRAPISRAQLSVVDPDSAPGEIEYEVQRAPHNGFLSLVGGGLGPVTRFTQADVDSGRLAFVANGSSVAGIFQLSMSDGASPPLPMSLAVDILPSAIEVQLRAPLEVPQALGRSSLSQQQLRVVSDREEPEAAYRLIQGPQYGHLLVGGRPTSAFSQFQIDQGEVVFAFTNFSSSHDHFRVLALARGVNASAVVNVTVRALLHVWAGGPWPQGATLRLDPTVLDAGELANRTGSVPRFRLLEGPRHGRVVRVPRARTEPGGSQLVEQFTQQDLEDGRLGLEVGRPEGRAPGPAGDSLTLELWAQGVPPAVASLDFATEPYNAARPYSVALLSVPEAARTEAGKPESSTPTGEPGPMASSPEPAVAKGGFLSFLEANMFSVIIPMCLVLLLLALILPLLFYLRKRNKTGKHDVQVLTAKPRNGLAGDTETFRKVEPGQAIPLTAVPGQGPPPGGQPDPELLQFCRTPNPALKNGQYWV

B1: CEA TCB (2+1 Crossfab-IgG P329G LALA inverted) (bispecific antibody)
chain 1: DIQMTQSPSSLSASVGDRVTITCKASAAVGTYVAWYQQKPGKAPKLLIYSASYRKRGVPSRFSGSGSGTDFTLTISSLQPEDFATYYCHQYYTYPLFTFGQGTKLEIKRTVAAPSVFIFPPSDEQLKSGTASVVCLLNNFYPREAKVQWKVDNALQSGNSQESVTEQDSKDSTYSLSSTLTLSKADYEKHKVYACEVTHQGLSSPVTKSFNRGEC
chain 2: QAVVTQEPSLTVSPGGTVTLTCGSSTGAVTTSNYANWVQEKPGQAFRGLIGGTNKRAPGTPARFSGSLLGGKAALTLSGAQPEDEAEYYCALWYSNLWVFGGGTKLTVLSSASTKGPSVFPLAPSSKSTSGGTAALGCLVKDYFPEPVTVSWNSGALTSGVHTFPAVLQSSGLYSLSSVVTVPSSSLGTQTYICNVNHKPSNTKVDKKVEPKSC
chain 3: not shown
chain 4: QVQLVQSGAEVKKPGASVKVSCKASGYTFTEFGMNWVRQAPGQGLEWMGWINTKTGEATYVEEFKGRVTFTTDTSTSTAYMELRSLRSDDTAVYYCARWDFAYYVEAMDYWGQGTTVTVSSASTKGPSVFPLAPSSKSTSGGTAALGCLVKDYFPEPVTVSWNSGALTSGVHTFPAVLQSSGLYSLSSVVTVPSSSLGTQTYICNVNHKPSNTKVDKKVEPKSCDKTHTCPPCPAPEAAGGPSVFLFPPKPKDTLMISRTPEVTCVVVDVSHEDPEVKFNWYVDGVEVHNAKTKPREEQYNSTYRVVSVLTVLHQDWLNGKEYKCKVSNKALGAPIEKTISKAKGQPREPQVCTLPPSRDELTKNQVSLSCAVKGFYPSDIAVEWESNGQPENNYKTTPPVLDSDGSFFLVSKLTVDKSRWQQGNVFSCSVMHEALHNHYTQKSLSLSPGK
notes: Two anti-CEA Fabs CH1A1A 98/99 2F1, one anti-CD3 crossfab (humanized CH2527), Fc knob-into-hole with P329G LALA; the conventional light chain occurs twice (vector ratio 1:2:1:1); also called CEA TCB antibody
Q: Which “EC50 of killing of A549-hCEA cells at 40 h, cynomolgus PBMCs as effector cells” value [1] does the source give for B1 here?
A: 0.102 nM

Q: What about the “EC50 of killing of A549-hCEA cells at 40 h, human PBMCs as effector cells” value [1] of the same binder?
A: 0.306 nM

Q: What about the “EC50 [pM] 48 h for T-cell mediated killing of ASPC1 cells (LDH release, human PBMCs, E:T 10:1)” value [2] of the same binder?
A: 846 pM

Q: What about the “EC50 [pM] 48 h for T-cell mediated killing of BxPC-3 cells (LDH release, human PBMCs, E:T 10:1)” value [2] of the same binder?
A: 3780 pM

Q: What about the “EC50 [pM] 48 h for T-cell mediated killing of HPAFII cells (LDH release, human PBMCs, E:T 10:1)” value [2] of the same binder?
A: 667 pM

Q: Does B1 bind [3]?
A: binds

B2: MCSP TCB (2+1 Crossfab-IgG P329G LALA inverted) (bispecific antibody)
chain 1: not shown
chain 2: QAVVTQEPSLTVSPGGTVTLTCGSSTGAVTTSNYANWVQEKPGQAFRGLIGGTNKRAPGTPARFSGSLLGGKAALTLSGAQPEDEAEYYCALWYSNLWVFGGGTKLTVLSSASTKGPSVFPLAPSSKSTSGGTAALGCLVKDYFPEPVTVSWNSGALTSGVHTFPAVLQSSGLYSLSSVVTVPSSSLGTQTYICNVNHKPSNTKVDKKVEPKSC
chain 3: not shown
chain 4: QVQLQESGPGLVKPSQTLSLTCTVSGGSITSGYYWNWIRQHPGKGLEWIGYITFDGSNNYNPSLKSRVTISRDTSKNQFSLKLSSVTAADTAVYYCADFDYWGQGTLVTVSSASTKGPSVFPLAPSSKSTSGGTAALGCLVKDYFPEPVTVSWNSGALTSGVHTFPAVLQSSGLYSLSSVVTVPSSSLGTQTYICNVNHKPSNTKVDKKVEPKSCDKTHTCPPCPAPEAAGGPSVFLFPPKPKDTLMISRTPEVTCVVVDVSHEDPEVKFNWYVDGVEVHNAKTKPREEQYNSTYRVVSVLTVLHQDWLNGKEYKCKVSNKALGAPIEKTISKAKGQPREPQVCTLPPSRDELTKNQVSLSCAVKGFYPSDIAVEWESNGQPENNYKTTPPVLDSDGSFFLVSKLTVDKSRWQQGNVFSCSVMHEALHNHYTQKSLSLSPGK
notes: Two anti-MCSP Fabs M4-3(C1) ML2(G3), one anti-CD3 crossfab (humanized CH2527), Fc knob-into-hole with P329G LALA; the conventional light chain occurs twice (vector ratio 1:2:1:1); also called MCSP TCB antibody; MCSP CD3 bispecific antibody
Q: Does B2 bind [4]?
A: binds

B3: untargeted TCB (bispecific antibody)
polypeptide chain; the text does not say which chain this SEQ ID NO is 1: not shown
polypeptide chain; the text does not say which chain this SEQ ID NO is 2: QAVVTQEPSLTVSPGGTVTLTCGSSTGAVTTSNYANWVQEKPGQAFRGLIGGTNKRAPGTPARFSGSLLGGKAALTLSGAQPEDEAEYYCALWYSNLWVFGGGTKLTVLSSASTKGPSVFPLAPSSKSTSGGTAALGCLVKDYFPEPVTVSWNSGALTSGVHTFPAVLQSSGLYSLSSVVTVPSSSLGTQTYICNVNHKPSNTKVDKKVEPKSC
polypeptide chain; the text does not say which chain this SEQ ID NO is 3: not shown
polypeptide chain; the text does not say which chain this SEQ ID NO is 4: not shown
notes: Control bispecific antibody that engages CD3 through humanized CH2527 but no second antigen; also called DP47GS TCB; DP47 GS TCB
Q: What does the source list for B3?
A: binding result [5]: no binding (tested: about log 5.3 [pM] (about 200 nM)); binding result [6]: no binding (tested: log 6 [pM] (1000 nM)); binding result [4]: binds

B4: M4-3(C1)/ML2(G3) IgG (antibody, V domains shown)
VH: QVQLQESGPGLVKPSQTLSLTCTVSGGSITSGYYWNWIRQHPGKGLEWIGYITFDGSNNYNPSLKSRVTISRDTSKNQFSLKLSSVTAADTAVYYCADFDYWGQGTLVTVSS
VL: DIQMTQSPSSLSASVGDRVTITCRASQGIRNYLNWYQQKPGKAPKLLIYYTSSLHSGVPSRFSGSGSGTDYTLTISSLQPEDFATYYCQQYSALPWTFGQGTKVEIKR
notes: Human IgG1 format, produced in HEK293-EBNA
Q: Which results are given for B4?
A: Fold increase over parent (IgG KD) (cynomolgus MCSP D3): 10 fold; Fold increase over parent (IgG KD) [7]: 28.6 fold
